For one data set, the target named is HOXB3 + PBX1 (UniProt P14651;P40424 P14651:1-431,P40424:1-430). The data set can be described thus: EMSA; cooperative complex; 20 mM Hepes pH 7.6, 30 mM KCl, poly(dI-dC), RT. Conditions: tags: pSG5-derived vectors, reticulocyte lysate; label: DIG. The method, then: (§1) PBX1 and HOX proteins used in this study were produced in vitro from the corresponding pSG5-derived expression vectors using a T7 polymerase-based coupled transcription-translation reticulocyte lysate system (Promega, Madison, Wis.). EMSA were performed according to the instruction of DIG gel shift kit (Roche). Briefly, 2 μl of double-stranded DIG-labeled oligonucleotides were incubated with 2 μl of in vitro-translated proteins in 20 μl of binding buffer (20 mM Hepes pH 7.6, 1 mM EDTA, 10 mM (NH₄)₂SO_{4, 1} mM DTT, 0.2%(w/v) Tween 20, 30 mM KCl in the presence of 1 μg of poly (dI-dC) and 0.1 μg of poly L-lysine) for 30 min at room temperature. Pre-binding reactions of unlabeled competitor oligonucleotides at ˜100-fold molar excess occurred for 15 minutes at room temperature. The incubation mixture was resolved by electrophoresis and served for chemiluminescent detection according to recommended conditions of DIG gel shift kit (Roche). DIG-labeled DNA probes used were generated by annealing complementary oligonucleotides:
(§2) Next, a representative subset of HOX proteins was tested for cooperative DNA binding with Pbx 1, to both the wild-type and a mutated 40 bp sequence derived from the 125 bp Hb9 enhancer (FIG. 6D). […] No binding was detected with PBX1 alone (lane 1), or with either of the HOX proteins alone. […]
(Mobility shift assays separate free from complexed probe on a gel.)

In the next data set the target is HOXD9 + PBX1 (UniProt P28356;P40424 P28356:1-352,P40424:1-430). Nature of the data set: EMSA; no retarded complex with PBX1. As to conditions: tags: pSG5-derived vectors, reticulocyte lysate; label: DIG. The method, then: as §1, §2
For a further data set, the target named is HOXC8 + PBX1 (UniProt P31273;P40424 P31273:1-242,P40424:1-430). The data set can be described thus: EMSA; no retarded complex with PBX1. As to conditions: tags: pSG5-derived vectors, reticulocyte lysate; label: DIG. The method, then:
as §1, §2

In a further data set the target is T1, PBX1 (UniProt P40424 P40424:1-430).
T1 sequence: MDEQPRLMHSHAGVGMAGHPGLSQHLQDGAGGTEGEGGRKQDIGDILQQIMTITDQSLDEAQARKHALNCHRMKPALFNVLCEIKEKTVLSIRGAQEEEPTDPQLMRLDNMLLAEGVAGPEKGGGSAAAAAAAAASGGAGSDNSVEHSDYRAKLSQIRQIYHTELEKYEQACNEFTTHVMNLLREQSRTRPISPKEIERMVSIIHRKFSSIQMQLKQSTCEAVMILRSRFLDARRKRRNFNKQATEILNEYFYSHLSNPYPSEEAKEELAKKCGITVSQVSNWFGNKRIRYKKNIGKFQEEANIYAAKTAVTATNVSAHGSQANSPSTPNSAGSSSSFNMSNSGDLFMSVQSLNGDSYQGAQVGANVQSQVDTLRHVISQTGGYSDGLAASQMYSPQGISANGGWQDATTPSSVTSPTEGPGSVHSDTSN
The data set can be described thus: EMSA; PBX1 alone. As to conditions: tags: pSG5-derived vector, reticulocyte lysate; label: DIG. The protocol:
as §1, §2

A further data set deals with HOXB1 + PBX1 (UniProt P14653;P40424 P14653:1-301,P40424:1-430). Nature of the data set: EMSA; cooperative complex; abolished by anti-PBX1 antibody; 20 mM Hepes pH 7.6, 30 mM KCl, poly(dI-dC), RT. Conditions: tags: pSG5-derived vectors, reticulocyte lysate; label: DIG. The method, then:
as §1, §2

A further data set deals with HOXB3 (UniProt P14651 P14651:1-431). Nature of the data set: EMSA; HOX alone. As to conditions: tags: pSG5-derived vector, reticulocyte lysate; label: DIG. The method, then:
as §1, §2

The target of another data set is HOXB1 (UniProt P14653 P14653:1-301). The data set can be described thus: EMSA; HOX alone. Conditions: tags: pSG5-derived vector, reticulocyte lysate; label: DIG. The protocol: as §1, §2
Sequence of HOXB1 (P14653 whole entry, one chain of several): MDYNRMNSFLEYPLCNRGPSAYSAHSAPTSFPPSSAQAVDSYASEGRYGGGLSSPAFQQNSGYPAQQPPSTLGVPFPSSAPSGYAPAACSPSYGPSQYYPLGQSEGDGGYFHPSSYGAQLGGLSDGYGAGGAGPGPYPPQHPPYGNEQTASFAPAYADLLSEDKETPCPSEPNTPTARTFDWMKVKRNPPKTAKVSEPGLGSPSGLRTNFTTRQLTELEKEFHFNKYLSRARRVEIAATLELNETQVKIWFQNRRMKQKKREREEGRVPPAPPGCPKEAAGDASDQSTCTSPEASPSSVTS

Sequence of HOXB1 + PBX1 (P14653 whole entry, one chain of several): as above
Sequence of HOXB3 + PBX1 (P14651 whole entry, one chain of several): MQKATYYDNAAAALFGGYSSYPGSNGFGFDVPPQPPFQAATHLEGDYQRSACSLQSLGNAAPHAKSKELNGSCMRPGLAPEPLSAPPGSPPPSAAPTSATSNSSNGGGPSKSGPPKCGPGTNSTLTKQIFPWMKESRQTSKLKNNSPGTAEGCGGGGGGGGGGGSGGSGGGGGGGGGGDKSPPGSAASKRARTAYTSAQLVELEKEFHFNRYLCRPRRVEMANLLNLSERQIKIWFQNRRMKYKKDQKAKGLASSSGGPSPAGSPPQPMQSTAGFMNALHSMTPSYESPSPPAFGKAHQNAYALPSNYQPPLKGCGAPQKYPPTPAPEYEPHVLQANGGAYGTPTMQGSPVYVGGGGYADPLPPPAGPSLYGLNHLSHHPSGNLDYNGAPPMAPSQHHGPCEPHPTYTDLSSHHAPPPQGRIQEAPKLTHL
Sequence of HOXB3 (P14651 whole entry, one chain of several): as above
Sequence of HOXD9 + PBX1 (P28356 whole entry, one chain of several): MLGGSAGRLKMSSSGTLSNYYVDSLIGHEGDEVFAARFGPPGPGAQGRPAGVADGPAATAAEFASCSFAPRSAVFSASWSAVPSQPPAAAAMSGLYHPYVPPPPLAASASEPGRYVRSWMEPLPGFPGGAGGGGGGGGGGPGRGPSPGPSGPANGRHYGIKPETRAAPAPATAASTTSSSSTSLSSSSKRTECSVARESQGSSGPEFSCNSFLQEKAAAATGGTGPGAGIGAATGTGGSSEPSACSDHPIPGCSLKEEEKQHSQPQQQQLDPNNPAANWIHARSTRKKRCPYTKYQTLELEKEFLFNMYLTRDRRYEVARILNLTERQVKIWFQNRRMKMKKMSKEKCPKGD
Sequence of HOXC8 + PBX1 (P31273 whole entry, one chain of several): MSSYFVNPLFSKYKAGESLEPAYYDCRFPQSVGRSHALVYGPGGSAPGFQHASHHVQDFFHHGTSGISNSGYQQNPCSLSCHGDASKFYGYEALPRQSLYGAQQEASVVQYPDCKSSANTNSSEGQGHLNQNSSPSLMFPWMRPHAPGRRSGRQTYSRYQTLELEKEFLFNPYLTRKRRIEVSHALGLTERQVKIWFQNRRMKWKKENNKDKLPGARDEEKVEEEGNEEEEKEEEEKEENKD

B1: Hb9 125 bp enhancer wild-type 40 bp probe (dsDNA)
DNA 1: GTACGTTAGCTGATGAATTGACAAAAACTAATCAGCTTTA
DNA 2: TAAAGCTGATTAGTTTTTGTCAATTCATCAGCTAACGTAC
Turning to B1, the binding result was “binds” in the data set with HOXB3 + PBX1; “no binding” with HOXD9 + PBX1; “no binding” with HOXC8 + PBX1; “no binding” in the data set with PBX1; “binds” with HOXB1 + PBX1; “no binding” with HOXB3. The binding result in the data set with HOXB1 was “no binding”.

Source of the values: patent US20050129672, “Regulatory sequences that direct gene expression to spinal motor neurons and uses thereof” (published 2005).
